Experimental data as given in patent US20230310629A1, “BISPECIFIC ANTIBODY-DRUG CONJUGATES TARGETING EGFR AND MUC1 AND USES THEREOF” (Merck Patent GmbH, priority 2020, published 2023).

Assays:
[1] = biological target: human MUC1-VNTR peptide (Homo sapiens, UniProt P15941); test: Biacore binding to human MUC1-VNTR peptide (Example 1)
Procedure: An anti-MUC1 scFv (H02) was developed by affinity maturation of anti-MUC1 antibody HT186-D11 (see Thie H. et al. PLoS One […], 6, 1, e15921) using ribosome display selection. For the scFv library, CDRs H1, H2, H3 and L3 (SEQ ID NOs: 4, 5, 6, and 9) were targeted. scFv ribosome display selections were then performed against a biotinylated synthetic VNTR peptide of MUC ([…]-biotin) (SEQ ID NO:10).

[2] = tested on: WISH cells; test: WISH cell binding (Example 1); set-up: species or system human; unit not given here
[3] = human MUC1-VNTR, second data set

kd ([1]; human MUC1-VNTR peptide, first data set): 2.14E−04 ½
ka1 [1, 3]: 126000 M⁻¹ s⁻¹
kd1 [1, 3]: 0.0017 s⁻¹
B1: 1993-H02: anti-MUC1 antibody variant from affinity maturation of HT186-D11, with HT186-D11 light chain; developed as scFv (antibody, V domains shown)
VH: QMQLVQSEAELKKPGASVKVSCKASGYSFTSHFMHWVRQAPGQGLEWMGWIDPVTGGTKYAQNFQGWVTMTRDTSIRTAYLELSRLRSDDTAMYYCAREARADRGQFDKWGQGTLVTVAS
VL: QSVLTQPPSVSVAPGKTARITCGGNNIGSKSVHWYQQKPGQAPALVIYYGSNRPSGIPERFSGSNSGNTATLTISRVEAGDEADYYCQVWDSSSDWVFGGGTKLTVL
Turbidity A600: 0.15
Bmax [2]: 128920
